Assay [1] has as its target Clostridioides difficile toxin B (TcdB), full-length TcdB1 (VP10463) (Clostridioides difficile, UniProt P18177 1-2366). Kind of assay: SPR. (Surface plasmon resonance follows binding to a sensor surface in real time, without labels.)
The target of assay [2] is TcdB 1285-1804 with C-terminal Avitag (RBD toxin fragment), biotinylated (Clostridioides difficile, UniProt P18177 1285-1804). Kind of assay: SPR.

Where no end group is shown, it is not given here.

Sequence of TcdB 1285-1804 with C-terminal Avitag (RBD toxin fragment), biotinylated (P18177 1285-1804): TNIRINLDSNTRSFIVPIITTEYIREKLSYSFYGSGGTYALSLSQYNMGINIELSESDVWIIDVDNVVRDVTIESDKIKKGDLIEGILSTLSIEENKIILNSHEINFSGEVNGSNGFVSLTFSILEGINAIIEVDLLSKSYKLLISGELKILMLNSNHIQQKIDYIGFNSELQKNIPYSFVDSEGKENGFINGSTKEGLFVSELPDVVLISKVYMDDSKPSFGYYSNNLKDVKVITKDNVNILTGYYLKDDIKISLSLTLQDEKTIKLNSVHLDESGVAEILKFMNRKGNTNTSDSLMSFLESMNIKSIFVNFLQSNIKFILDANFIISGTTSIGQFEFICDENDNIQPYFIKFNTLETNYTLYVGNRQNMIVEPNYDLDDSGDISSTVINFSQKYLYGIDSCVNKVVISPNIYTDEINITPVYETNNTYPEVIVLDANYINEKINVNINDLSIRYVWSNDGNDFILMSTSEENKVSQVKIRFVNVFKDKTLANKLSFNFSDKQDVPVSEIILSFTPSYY
Sequence of Clostridioides difficile toxin B (TcdB), full-length TcdB1 (VP10463) (P18177 whole entry, the tested form may be a part): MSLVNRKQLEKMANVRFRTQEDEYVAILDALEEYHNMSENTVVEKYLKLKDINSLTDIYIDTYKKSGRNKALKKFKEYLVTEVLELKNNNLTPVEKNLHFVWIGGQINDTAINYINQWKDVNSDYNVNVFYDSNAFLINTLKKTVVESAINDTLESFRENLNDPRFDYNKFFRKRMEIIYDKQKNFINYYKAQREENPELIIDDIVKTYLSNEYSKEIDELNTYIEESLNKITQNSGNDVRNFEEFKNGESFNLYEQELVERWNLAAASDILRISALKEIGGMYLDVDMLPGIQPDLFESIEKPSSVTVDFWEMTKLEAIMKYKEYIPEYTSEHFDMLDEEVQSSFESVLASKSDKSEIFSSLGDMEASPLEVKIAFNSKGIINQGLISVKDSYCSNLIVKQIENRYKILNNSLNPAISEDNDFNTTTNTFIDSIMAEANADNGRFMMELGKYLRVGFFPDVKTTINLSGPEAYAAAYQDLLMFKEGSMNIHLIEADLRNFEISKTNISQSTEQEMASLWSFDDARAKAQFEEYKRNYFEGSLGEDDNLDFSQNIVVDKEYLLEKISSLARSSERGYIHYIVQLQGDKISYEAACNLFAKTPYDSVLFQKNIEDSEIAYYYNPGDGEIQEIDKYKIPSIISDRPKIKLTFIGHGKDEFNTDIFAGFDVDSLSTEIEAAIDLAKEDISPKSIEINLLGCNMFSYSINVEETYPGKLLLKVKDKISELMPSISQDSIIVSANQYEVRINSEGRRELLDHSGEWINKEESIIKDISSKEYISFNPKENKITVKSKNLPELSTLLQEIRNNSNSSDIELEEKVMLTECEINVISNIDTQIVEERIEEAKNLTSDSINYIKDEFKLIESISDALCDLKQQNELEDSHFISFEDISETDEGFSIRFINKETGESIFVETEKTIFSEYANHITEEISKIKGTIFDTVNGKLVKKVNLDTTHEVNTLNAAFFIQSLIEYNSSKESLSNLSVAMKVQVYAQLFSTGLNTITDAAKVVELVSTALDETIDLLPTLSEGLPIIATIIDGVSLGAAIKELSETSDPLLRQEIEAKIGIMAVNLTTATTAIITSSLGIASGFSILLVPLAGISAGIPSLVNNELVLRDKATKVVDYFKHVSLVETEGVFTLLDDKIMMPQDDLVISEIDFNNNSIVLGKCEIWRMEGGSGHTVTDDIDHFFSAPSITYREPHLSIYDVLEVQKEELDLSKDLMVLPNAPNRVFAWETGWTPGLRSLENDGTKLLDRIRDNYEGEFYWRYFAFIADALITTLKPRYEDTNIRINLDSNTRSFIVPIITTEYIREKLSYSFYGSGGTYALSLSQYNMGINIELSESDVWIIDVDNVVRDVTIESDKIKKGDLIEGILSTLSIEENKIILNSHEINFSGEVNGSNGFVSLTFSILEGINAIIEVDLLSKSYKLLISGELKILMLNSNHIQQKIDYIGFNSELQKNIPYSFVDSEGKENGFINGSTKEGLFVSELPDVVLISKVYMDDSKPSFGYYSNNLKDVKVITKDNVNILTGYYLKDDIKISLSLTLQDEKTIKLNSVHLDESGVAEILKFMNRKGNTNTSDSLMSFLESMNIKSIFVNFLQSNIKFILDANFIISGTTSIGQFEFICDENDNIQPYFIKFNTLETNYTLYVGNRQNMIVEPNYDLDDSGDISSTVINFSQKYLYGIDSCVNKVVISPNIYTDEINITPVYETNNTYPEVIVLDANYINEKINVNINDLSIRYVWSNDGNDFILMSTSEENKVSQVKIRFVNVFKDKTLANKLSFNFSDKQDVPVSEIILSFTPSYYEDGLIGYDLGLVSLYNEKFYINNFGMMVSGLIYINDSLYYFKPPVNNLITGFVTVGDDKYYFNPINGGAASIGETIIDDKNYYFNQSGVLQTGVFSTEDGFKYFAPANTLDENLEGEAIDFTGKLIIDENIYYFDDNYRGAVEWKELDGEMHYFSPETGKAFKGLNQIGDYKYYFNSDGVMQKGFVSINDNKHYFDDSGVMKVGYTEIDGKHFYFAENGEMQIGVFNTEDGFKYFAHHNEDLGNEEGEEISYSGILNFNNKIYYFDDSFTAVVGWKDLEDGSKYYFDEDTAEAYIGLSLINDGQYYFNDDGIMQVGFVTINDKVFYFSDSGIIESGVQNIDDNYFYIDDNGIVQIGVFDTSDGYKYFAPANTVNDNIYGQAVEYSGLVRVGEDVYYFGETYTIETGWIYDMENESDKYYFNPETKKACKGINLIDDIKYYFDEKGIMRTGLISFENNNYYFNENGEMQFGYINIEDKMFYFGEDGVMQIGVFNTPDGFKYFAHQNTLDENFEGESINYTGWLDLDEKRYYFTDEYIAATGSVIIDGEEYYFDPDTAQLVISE

B1: cspg4 (designed minibinder) (designed binder)
chain: ENKLARAVVTVNKSWLATQLFVRLYRLCKAGDPRCEEVAEKLRKVLELQGVPETDIELVVEVAKG
A word on the Kd: it is the free concentration of one partner at which half of the binding sites on the other are occupied at equilibrium, for simple one-to-one binding. Lower therefore signals higher affinity. As to B1, the Kd in assay [1] turned out to be 2 nM.

B2: fzd48 (designed binder)
chain: KEELEKMIEELKKLIENGDKENFIKLFDEAFKKAKESRDPRTIASVWTLVLEFKNKN
On to B2, for which, in assay [2], the equilibrium dissociation constant (Kd) was < 0.01 nM.

B3: fzd13 (designed binder)
chain: AEKEVQELIDKALNTPDPKVASKYIISAVYVAAKARDPSLFQSALDTAKKL
Take B3: the Kd in assay [2] is 0.0056 nM.

B4: ss2cspg18 (designed binder)
chain: MDEKVEKLKECLEKLKEKGDIKGVIDTERAIRICERSRHKEFCEWAIEKCENRIKES
modifications: disulfide (positions not given here)
In turn, B4 gave a Kd in assay [1] of 0.87 nM.

Source of the values: paper PMC12501149 (2025).
